Measurements published in article PMC10862077 (Frontiers in Immunology, 2024).

Columns and labels:
Conditions in all cases: both partners purified
horse albumin [1] = biological target: T1, horse albumin (Equus caballus, UniProt P35747)
cat albumin [2] = biological target: T2, cat albumin (Felis catus, UniProt P49064)
[3] = biological target: T3, natural protein of Sus scrofa P08835 (Sus scrofa, UniProt P08835)
T3 construct: also called Sw

sheep albumin = sheep albumin (Ovis aries, UniProt P14639); experiment: ELISA; […], pH 7.4); room temperature; […]
horse albumin [4] = biological target: T1, horse albumin; experiment: ELISA; […], pH 7.4); room temperature; […]
cat albumin [5] = biological target: T2, cat albumin; experiment: ELISA; […], pH 7.4); room temperature; […]
mouse albumin = mouse albumin (Mus musculus, UniProt P07724); experiment: ELISA; […], pH 7.4); room temperature; […]
[6] = biological target: T3, natural protein of Sus scrofa P08835; experiment: ELISA; […], pH 7.4); room temperature; […]
bovine albumin = bovine albumin (Bos taurus, UniProt P02769); experiment: ELISA; […], pH 7.4); room temperature; […]
chicken ovalbumin = chicken ovalbumin (Gallus gallus, UniProt P01012); experiment: ELISA; […], pH 7.4); room temperature; […]
human albumin = biological target: T4, human albumin (Homo sapiens, UniProt P02768); experiment: ELISA; […], pH 7.4); room temperature; […]
T4 construct: also called HSA
T4 sequence (P02768 25-609): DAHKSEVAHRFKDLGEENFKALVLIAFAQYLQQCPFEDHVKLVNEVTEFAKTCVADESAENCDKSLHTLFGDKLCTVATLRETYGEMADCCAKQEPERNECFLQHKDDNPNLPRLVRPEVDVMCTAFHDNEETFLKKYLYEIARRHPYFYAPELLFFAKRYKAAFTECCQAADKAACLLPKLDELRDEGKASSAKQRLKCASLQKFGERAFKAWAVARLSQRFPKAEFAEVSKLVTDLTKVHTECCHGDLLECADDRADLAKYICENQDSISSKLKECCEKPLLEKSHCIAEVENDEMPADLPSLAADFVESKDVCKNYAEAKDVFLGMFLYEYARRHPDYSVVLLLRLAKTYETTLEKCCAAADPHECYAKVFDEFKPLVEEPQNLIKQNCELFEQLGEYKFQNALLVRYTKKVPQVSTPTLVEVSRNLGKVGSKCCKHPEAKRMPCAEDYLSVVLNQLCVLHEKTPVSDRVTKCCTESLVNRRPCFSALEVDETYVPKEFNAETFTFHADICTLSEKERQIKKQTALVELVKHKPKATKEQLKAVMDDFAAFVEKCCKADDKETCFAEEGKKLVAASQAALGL

T3 sequence (P08835 25-607, one chain of several): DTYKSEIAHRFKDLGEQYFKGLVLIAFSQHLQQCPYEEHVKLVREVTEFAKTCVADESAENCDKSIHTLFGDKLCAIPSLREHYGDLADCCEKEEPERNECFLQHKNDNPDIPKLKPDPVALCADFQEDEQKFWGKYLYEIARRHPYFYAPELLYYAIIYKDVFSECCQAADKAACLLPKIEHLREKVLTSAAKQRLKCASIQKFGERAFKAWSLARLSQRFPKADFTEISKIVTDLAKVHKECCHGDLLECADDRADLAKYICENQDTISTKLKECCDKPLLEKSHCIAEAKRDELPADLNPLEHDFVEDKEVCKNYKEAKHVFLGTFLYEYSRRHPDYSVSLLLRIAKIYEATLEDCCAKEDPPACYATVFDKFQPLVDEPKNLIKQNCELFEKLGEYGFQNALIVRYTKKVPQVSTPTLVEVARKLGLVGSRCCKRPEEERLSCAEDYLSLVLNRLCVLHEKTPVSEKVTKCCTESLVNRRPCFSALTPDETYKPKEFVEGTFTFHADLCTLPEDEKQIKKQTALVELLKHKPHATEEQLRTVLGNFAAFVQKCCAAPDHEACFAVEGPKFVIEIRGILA
T1 sequence (P35747 25-607): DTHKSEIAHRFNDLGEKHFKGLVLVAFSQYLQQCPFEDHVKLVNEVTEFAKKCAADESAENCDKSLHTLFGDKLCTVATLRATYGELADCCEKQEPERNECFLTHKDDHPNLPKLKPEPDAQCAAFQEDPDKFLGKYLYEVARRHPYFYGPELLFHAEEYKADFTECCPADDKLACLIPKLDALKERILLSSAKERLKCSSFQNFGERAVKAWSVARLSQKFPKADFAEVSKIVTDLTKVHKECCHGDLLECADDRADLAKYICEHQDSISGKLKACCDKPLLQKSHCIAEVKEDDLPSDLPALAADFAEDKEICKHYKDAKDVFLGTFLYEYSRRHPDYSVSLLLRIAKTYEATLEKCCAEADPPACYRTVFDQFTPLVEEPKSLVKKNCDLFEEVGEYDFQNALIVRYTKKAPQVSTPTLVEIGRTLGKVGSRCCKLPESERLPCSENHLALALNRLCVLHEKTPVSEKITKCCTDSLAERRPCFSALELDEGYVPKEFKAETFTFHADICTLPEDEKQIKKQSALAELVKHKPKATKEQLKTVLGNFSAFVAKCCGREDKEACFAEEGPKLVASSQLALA
T2 sequence (P49064 25-608): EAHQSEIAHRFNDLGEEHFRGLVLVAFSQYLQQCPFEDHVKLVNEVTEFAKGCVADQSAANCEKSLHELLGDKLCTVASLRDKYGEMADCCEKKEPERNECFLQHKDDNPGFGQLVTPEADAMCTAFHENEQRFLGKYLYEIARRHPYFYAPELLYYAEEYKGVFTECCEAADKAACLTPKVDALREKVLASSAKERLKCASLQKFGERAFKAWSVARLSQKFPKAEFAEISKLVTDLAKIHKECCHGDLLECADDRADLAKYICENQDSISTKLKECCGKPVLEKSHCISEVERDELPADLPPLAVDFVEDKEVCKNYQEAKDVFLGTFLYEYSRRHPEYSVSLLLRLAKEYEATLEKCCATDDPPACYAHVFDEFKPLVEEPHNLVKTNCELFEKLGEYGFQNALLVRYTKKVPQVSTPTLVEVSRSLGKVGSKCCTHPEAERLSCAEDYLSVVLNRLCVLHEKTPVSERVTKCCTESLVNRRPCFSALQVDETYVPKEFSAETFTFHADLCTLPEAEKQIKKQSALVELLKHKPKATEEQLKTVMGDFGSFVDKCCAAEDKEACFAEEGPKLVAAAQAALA
Chain of chicken ovalbumin (P01012 whole entry): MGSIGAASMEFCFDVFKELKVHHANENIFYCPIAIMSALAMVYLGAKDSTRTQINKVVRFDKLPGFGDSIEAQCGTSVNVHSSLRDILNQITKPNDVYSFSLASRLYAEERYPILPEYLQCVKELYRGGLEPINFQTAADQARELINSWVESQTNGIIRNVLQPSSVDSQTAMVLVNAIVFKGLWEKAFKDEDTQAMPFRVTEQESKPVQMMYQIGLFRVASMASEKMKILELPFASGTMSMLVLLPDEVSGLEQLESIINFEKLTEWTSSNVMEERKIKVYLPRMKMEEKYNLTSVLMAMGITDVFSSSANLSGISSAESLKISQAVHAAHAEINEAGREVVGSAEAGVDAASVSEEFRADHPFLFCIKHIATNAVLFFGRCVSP
Chain of mouse albumin (P07724 25-608): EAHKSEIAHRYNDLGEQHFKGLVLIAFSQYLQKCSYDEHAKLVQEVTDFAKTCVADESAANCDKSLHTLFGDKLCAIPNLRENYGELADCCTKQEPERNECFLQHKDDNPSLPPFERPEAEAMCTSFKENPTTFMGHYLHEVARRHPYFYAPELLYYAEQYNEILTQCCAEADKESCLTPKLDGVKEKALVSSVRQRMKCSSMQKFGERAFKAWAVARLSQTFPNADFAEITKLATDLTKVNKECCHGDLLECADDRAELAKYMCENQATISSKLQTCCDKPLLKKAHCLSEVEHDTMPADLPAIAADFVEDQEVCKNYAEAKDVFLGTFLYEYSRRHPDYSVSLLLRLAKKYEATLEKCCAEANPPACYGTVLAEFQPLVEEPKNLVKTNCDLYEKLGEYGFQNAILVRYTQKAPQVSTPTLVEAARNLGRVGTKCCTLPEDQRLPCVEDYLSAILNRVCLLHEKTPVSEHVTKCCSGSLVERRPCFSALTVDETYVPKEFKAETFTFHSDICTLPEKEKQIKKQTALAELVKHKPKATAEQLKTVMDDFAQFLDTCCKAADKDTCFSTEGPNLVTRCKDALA
Chain of sheep albumin (P14639 25-607): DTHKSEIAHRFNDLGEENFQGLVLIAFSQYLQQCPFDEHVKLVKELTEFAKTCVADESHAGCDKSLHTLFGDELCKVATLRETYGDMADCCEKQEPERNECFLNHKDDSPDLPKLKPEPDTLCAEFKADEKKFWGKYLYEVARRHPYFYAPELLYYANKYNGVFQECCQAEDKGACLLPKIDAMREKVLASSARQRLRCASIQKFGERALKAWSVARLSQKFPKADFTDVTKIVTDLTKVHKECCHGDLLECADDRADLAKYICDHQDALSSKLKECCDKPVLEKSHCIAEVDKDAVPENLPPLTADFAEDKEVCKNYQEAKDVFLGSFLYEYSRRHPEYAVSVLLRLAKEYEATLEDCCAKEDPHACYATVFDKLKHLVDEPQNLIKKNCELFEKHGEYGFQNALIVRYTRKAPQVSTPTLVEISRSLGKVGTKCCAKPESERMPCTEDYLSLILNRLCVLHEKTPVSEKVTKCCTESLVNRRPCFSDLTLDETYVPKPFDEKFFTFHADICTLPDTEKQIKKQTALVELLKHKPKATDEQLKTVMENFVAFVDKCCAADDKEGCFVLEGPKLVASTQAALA
Chain of bovine albumin (P02769 25-607): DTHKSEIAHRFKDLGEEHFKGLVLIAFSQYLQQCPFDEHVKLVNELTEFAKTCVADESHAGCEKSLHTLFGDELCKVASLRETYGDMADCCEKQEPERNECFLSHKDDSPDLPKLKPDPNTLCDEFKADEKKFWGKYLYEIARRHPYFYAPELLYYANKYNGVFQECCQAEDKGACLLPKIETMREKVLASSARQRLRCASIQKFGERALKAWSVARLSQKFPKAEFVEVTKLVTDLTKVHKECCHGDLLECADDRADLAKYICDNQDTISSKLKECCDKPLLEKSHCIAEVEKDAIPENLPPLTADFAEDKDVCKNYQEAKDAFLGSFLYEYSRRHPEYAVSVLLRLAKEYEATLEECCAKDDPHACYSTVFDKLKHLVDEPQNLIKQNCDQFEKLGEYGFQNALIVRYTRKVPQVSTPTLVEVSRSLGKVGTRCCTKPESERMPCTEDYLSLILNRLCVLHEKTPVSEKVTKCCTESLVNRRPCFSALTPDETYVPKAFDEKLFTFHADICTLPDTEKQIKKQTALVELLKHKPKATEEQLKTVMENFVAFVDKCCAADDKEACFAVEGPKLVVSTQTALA

B1: A12L (VHH)
VHH: QVQLQESGGGLVQAGGSLRLSCAASGRTFSYYPMAWFRQAPGQEREFVAAIIGADTTYYADSLKGRFTISRDNAKNMVYLQMNSLKPEDTAVYYCAARNTYWSDVYYREGQYTNWGQGTQVTVSS
notes: also called sdAb A12
Kd (horse albumin [1]): 13 nM
koff (horse albumin [1]): 0.00115 s⁻¹
Kd (cat albumin [2]): 31 nM
koff (cat albumin [2]): 0.00082 s⁻¹
Kd [3]: 189 nM
koff [3]: 0.0249 s⁻¹

B2: A6L (VHH)
VHH: QVQLQESGGRLVQAEDSLRLSCAASGRTFVSYDMGWFRQAPGKEREFVAAINWRGYTTDYVDSVKGRFFISRDIAKSTVYLQMNNLKPEDTAVYYCAARQMSGSSRYSPPGRVGYDFWGQGTQVTVSS
notes: also called sdAb A6
Kd (horse albumin [1]): 13 nM
koff (horse albumin [1]): 0.00966 s⁻¹
Kd (cat albumin [2]): 1.2 nM
koff (cat albumin [2]): 0.00087 s⁻¹

B3: A7L (VHH)
VHH: QVQLQQSGGGLVQAGDSLRLSCAASGRAFNYYTMGWFRQAPGKEREFVAKIYWDGGSTIYADSVKGRFTISIDNAKNTVYLQMNSLKPEDTAVYYCAADPSFYPFRPKYWGQGTQVTVSS
notes: also called sdAb A7
binding result (sheep albumin): no binding (tested: 1 µg/ml sdAb)
binding result (horse albumin [4]): binds
binding result (cat albumin [5]): no binding (tested: 1 µg/ml sdAb)
binding result (mouse albumin): no binding (tested: 1 µg/ml sdAb)
binding result [6]: no binding (tested: 1 µg/ml sdAb)
binding result (bovine albumin): no binding (tested: 1 µg/ml sdAb)
binding result (chicken ovalbumin): no binding (tested: 1 µg/ml sdAb)
binding result (human albumin): no binding (tested: 1 µg/ml sdAb)

B4: A16L (VHH)
VHH: QVQLQESGGGVVQAGGSLRLSCAASGRTVSSSAMGWFRLAPGKEREFVVGISRSGGSIFYADSVKGRFTISRKNAKNTVDLQMNSLKPEDTAVYYCAAGYRPGYGDYGRVFYREDEYDDWGQGTQVTVSS
notes: also called sdAb A16
Kd (horse albumin [1]): 11 nM
koff (horse albumin [1]): 0.00242 s⁻¹

B5: A2L (VHH)
VHH: QVQLQQSGGGLVQAGGSLRLSCAASGRFFSRQVMGWFRQAPGKDREFVGVISWDNGVTFYSDSVKGRFTMSREIAKKTVHLQMNSLKPEDTAVYYCAAGNALHSRYYSPSKYDYWGPGTQVTVSS
notes: also called sdAb A2
binding result (horse albumin [4]): binds
